For assay [1], the target named is angiotensin AT1 receptor (UniProt P30556). Kind of assay: genetically encoded conformation-sensitive fluorescent biosensor.
The target is the same in assay [2]. The description is as above. The source holds these as a separate data set.

Where two headings read alike, the source gives them in different places.

Sequence of UniProt P30556 (P30556 whole entry): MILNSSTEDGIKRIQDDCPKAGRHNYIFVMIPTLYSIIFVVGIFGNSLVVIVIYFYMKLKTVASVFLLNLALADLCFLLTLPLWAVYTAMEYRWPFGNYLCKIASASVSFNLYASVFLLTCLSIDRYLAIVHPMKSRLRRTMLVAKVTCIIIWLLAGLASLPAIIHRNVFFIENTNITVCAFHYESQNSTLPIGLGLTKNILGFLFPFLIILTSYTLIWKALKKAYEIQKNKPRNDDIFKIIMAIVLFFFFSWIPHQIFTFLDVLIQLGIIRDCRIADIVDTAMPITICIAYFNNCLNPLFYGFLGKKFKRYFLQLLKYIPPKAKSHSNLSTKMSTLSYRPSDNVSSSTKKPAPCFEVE

For “β-arrestin2 sensor (β-arrestin2 inserted into the seventh stave of mNeonGreen) (from UniProt P32121 1-409)”, the t1/2 of arrestin recruitment (0.693/kobs) with 32 uM AngII stood at 44 s with angiotensin AT1 receptor [1] and 45 s with angiotensin AT1 receptor [2]. The same substance had a t1/2 of arrestin recruitment (0.693/kobs) with 32 uM SII in the assay with angiotensin AT1 receptor [2] of 84.

The record behind these values is publication doi:10.1101/772293.
